Experimental findings from paper PMC5557881 are described below.

The target in experiment [1] is Sigma mSPE-7 IgE (commercial mouse monoclonal anti-dinitrophenyl IgE, SPE-7, from Sigma) (mouse). Conditions: scale: % of the activity of the unpurified Sigma SPE-7 IgE.
Experiment [2] has as its target mSPE-7 IgE from the NS1 hybridoma (mouse anti-dinitrophenyl IgE) (mouse). The conditions noted are these: scale: % of the unpurified Sigma SPE-7 IgE's activity.
The target is the same in experiment [3]. In words: SEC-MALLS; peak B of the Superdex 200 Increase fractionation of NS1 mSPE-7 IgE, run again on Superdex 200 Increase with inline light scattering and refractometer.

In experiment [1], “Sigma mSPE-7 IgE (commercial mouse monoclonal anti-dinitrophenyl IgE, SPE-7, from Sigma) (antibody)” displayed a degranulation of RBL-SX38 cells (β-hexosaminidase release) without antigen by component B of Sigma SPE-7 IgE, against unpurified Sigma SPE-7 IgE of 65.

Regarding “mSPE-7 IgE from the NS1 hybridoma (mouse anti-dinitrophenyl IgE) (antibody)”, the degranulation of RBL-SX38 cells (β-hexosaminidase release) without antigen by peak B (IgE trimer) of NS1 mSPE-7 IgE, against unpurified Sigma SPE-7 IgE in experiment [2] stood at 55. This substance also came in with a stoichiometry N in experiment [3] of 3.
